Molecular target: ATG3 (human, recombinant) (human, UniProt Q9NT62 1-314)
Test: ITC

Sequence of ATG3 (human, recombinant) (Q9NT62 whole entry): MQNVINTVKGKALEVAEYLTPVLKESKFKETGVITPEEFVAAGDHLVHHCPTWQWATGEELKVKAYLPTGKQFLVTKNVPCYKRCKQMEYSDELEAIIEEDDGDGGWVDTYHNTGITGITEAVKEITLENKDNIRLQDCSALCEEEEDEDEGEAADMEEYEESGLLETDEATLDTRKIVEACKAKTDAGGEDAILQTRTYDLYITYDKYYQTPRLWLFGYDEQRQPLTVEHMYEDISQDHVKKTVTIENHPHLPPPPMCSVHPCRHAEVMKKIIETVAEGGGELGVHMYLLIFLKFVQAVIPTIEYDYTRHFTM

B1: unconjugated ATG12 (human, recombinant) (natural protein, UniProt O94817 1-140, looked up)
chain: MAEEPQSVLQLPTSIAAGGEGLTDVSPETTTPEPPSSAAVSPGTEEPAGDTKKKIDILLKAVGDTPIMKTKKWAVERTRTIQGLIDFIKKFLKLVASEQLFIYVNQSFAPSPDQEVGTLYECFGSDGKLVLHYCKSQAWG
B1 showed a Kd of 117 nM.
